Here are results for 132 substances from the supplement of paper PMC12042874.

± gives the uncertainty stated by the source.

The series in a line: amyloid nucleation score (Sup35N fusion, yeast selection) (log enrichment); library NNK3; higher = more nucleation; inactive = no reads after selection. The essentials: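 Random libraries were run with three technical output replicates. In each, psi-negative yeast expressing Sup35N fused to peptides of 20 random codons were induced 24 hours with 100 μM copper sulfate and grown 7 days at 30°C on medium lacking adenine and uracil, and input and output plasmid inserts were Illumina-sequenced. The nucleation score is the DiMSum log enrichment of output over input reads, centred on the mode score of non-aggregating sequences, and sequences under 100 input reads were excluded.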
On to IWVENQFDRRFLGVSMF, for which the amyloid nucleation score result was “inactive”.
As for IYCTFAAFSHCQQWKNLFWR, the figure is -0.456 ± 1.1; as for IYDAGFVYQIGTEEQVCNRV, “inactive”; as for IYFDVV, “inactive”.
For the substance IYGTRGSIKSYDTHSGRCGR, the amyloid nucleation score result was “inactive”.
Consider IYIKCFNVSFLRSADWSKCA, for which the amyloid nucleation score result was “inactive”.
As for IYIRRVRISVEATLRHCCVI, the entry is “inactive”; as for IYISFWR, 0.521 ± 0.2.
As for IYNRNGRF, the entry is “inactive”; as for IYRNKSTWWYWAWLVRNPML, “inactive”.
Regarding IYSTWET, the amyloid nucleation score was -0.698 ± 1.5.
Under IYSVYWDGMEPSIRTGWI stands “inactive”; under IYTLSTLLWFWSAWSILAVI, -0.197 ± 1.1.
As for IYTSFVTMERALSMFSPLFH, the entry is “inactive”; as for IYWLSDN, “inactive”; as for KALVGKYFKMCRTCDRYFYC, -0.416 ± 0.98.
Under KARLLMWS stands 0.181 ± 0.28.
The substance KCGIQLICMWFS gave an amyloid nucleation score of 1.47 ± 0.14.
As for KCNPVINFLWEMVLSDVFPL, the entry is “inactive”.
Under KCRDLIRNVVPNSAIELDPS stands “inactive”; under KDALISYFYYDCMHCPQASR, “inactive”.
Under KDCASGSRSTAIFAFCSGAF stands 0.281 ± 0.27; under KDRHVSYFGLYKLGWRYTPS, “inactive”.
In the case of KDTQWALYRNL, the amyloid nucleation score entry is “inactive”.
Under KEDLTSLVTLEKEALLVSDE stands “inactive”; under KFANYSPRDGTCGTDAHVSD, “inactive”; under KFEGLF, “inactive”.
Under KFGDPIRFWVTYYTNRSWSG stands -0.732 ± 1.4; under KFGFLYPISCDVYGQDFLAL, “inactive”; under KFKFVLILSEDAKAT, 1.23 ± 0.17.
Under KFLKLQVYASNGSSDPPRLD stands “inactive”.
Regarding KFNGCR, the amyloid nucleation score result is “inactive”.
For KFSSMGTVSLSGKSLYSDAV, the amyloid nucleation score result was “inactive”.
On to KFVVDARFVTS, for which the amyloid nucleation score came to 1.33 ± 0.13.
Regarding KGCPVASMAQWNSCMCYVLV, the amyloid nucleation score stood at 1.08 ± 0.12.
As for KGGCW, the entry is “inactive”; as for KGSFFLDCFGARRRIGLVKF, “inactive”.
Under KGTLGCNSSSHVLIAVCNAM stands “inactive”; under KHVNLWSVGWFLGFLVWSRA, “inactive”.
As for KHYDLGFQYFSR, the entry is “inactive”; as for KICVPSCSCTIFLDLFRY, 2.56 ± 0.08; as for KILFILISFLWMLFLVWNFN, 1.48 ± 0.1.
KIQRYNILSGTCVFI displayed an amyloid nucleation score of 1.51 ± 0.089.
As for KISFWVRERFNYRCTIGIEC, the entry is “inactive”.
Regarding KISGNFKILDWVGNFSDGNS, the amyloid nucleation score result was “inactive”.
KISNFLTSSLCMYGSLRWRV showed an amyloid nucleation score of 0.548 ± 0.2.
As for KKHIVY, the entry is “inactive”; as for KKISAQESEFVGSPFEYGGG, “inactive”; as for KKYLTNVDLNVSN, “inactive”.
As for KLCGHIIYCVV, the entry is “inactive”; as for KLEREMADNDVARGGQLVLG, “inactive”.
As for KLFGTKIVIVDVDSLCYMVL, the entry is “inactive”.
On to KLFSYRRRPNINCLG, for which the amyloid nucleation score entry was “inactive”.
With KLLLYMMYNRYLPM, the amyloid nucleation score was 0.528 ± 0.32.
Under KLLSRYSTACMLRINLIRRY stands “inactive”; under KLQHIFLFFDRS, 1.1 ± 0.11; under KLRCNTIKGFCSHKTRMGRT, “inactive”.
Under KLVICYCGYNHDCVVCTKRE stands 1.56 ± 0.094; under KLVQLYTLKFFGLNCSKSVI, “inactive”; under KLYIQCIYPDLVVINCDSWN, 2.39 ± 0.073.
Under KNDGKEF stands “inactive”.
Consider KNDGTIVQM, for which the amyloid nucleation score entry was “inactive”.
As for KNLGLA, the entry is “inactive”; as for KNLHNTRRLCSVLLVCWMYK, “inactive”.
Under KNQYSNSRLWYGALECHAPG stands “inactive”; under KNVFGSSFLLVVSYCNISAF, 1.95 ± 0.091.
For KPCHASVET, the amyloid nucleation score entry is “inactive”.
As for KPCSLIRWPIKASMFSYVHS, the entry is “inactive”.
As for KPMVYFQLRRLSKKVIYCAM, the entry is “inactive”; as for KQRVWR, “inactive”.
For KRCRFVVIFKSGIVTLWKLF, the amyloid nucleation score worked out at 0.568 ± 0.42.
Under KRDLGTNAFTMNRRCYQDTL stands “inactive”.
Under KREPKS stands “inactive”; under KRNSYTMFLA, “inactive”; under KRPHV, “inactive”.
Turning to KSALYADLVGYLGSACMGSR, the amyloid nucleation score result was “inactive”.
Under KSHPLNSVPEKLMLVWRSWK stands “inactive”; under KSICELVIRRNFVSLNIATY, -0.336 ± 0.7.
Turning to KSKHTVMRWSLYSRRIMLVF, the amyloid nucleation score entry was “inactive”.
As for KSMSLKTFCGWGETQYVFFV, the entry is “inactive”; as for KSQMCNMMRRFYLRCIDLRL, “inactive”.
Take KSSIMKGKLTHRGSQWFASQ: the amyloid nucleation score entry was “inactive”.
For KSSSAYNRSDHGLMLDRRTQ, the amyloid nucleation score entry was “inactive”.
As for KSTSFTYFLLNIRLMGYCPC, the figure is 0.725 ± 0.16; as for KTLVIYYTFKIGNILHIHLF, “inactive”; as for KTPLSSSCRKILIINTPRGM, “inactive”.
As for KTYPTLCILCVDMLLRKRGV, the entry is “inactive”.
Under KVCIHSIEIV stands “inactive”; under KVMTDIPDV, “inactive”; under KVRSVDCRNTSNKDHW, “inactive”.
Regarding KVVRVIVSEGNRVIKFTTMP, the amyloid nucleation score entry was “inactive”.
As for KVVVKEIQILVGSAGSKRMS, the figure is 0.638 ± 0.25; as for KVVVTIRTVCRKKVDVICID, 0.071 ± 0.72.
As for KWFMVA, the entry is “inactive”; as for KWGIGMGPSHSGLISWGHNE, -0.448 ± 1.8; as for KWPQLIWSGTYFKPFWSING, “inactive”.
As for KYANILSFTPFNQQSI, the entry is “inactive”; as for KYCHIYFNICLWLAYSLSFL, “inactive”.
KYCRRVYSSAETLYVLTHI: the amyloid nucleation score entry is “inactive”.
With KYFRNLTVRKTKWE, the amyloid nucleation score entry is “inactive”.
For the substance KYNTCSEV, the amyloid nucleation score entry is “inactive”.
As for KYVAKFSSLILTFL, the entry is “inactive”.
Under KYVYFMSVFCEVCSRAHRVV stands 1.24 ± 0.1; under LAGIMCCEKVYCGPRDGVLG, 1.69 ± 0.12.
Regarding LAIVRRCWNLRYAGYEI, the amyloid nucleation score result was “inactive”.
As to LAIYTVRSQFKVMCGVQSIR, the amyloid nucleation score stood at 0.85 ± 0.16.
As for LAPFV, the entry is “inactive”.
Under LAQMVNGRITDHYTLFRSRT stands “inactive”; under LASQELLFVRIRDSLAKCGV, “inactive”; under LATLLTMWRGSLRYNPLKRL, -0.354 ± 0.48.
Under LAVFKFDRSLIWDTTVRVFH stands “inactive”.
Consider LAVTFVHRLCWILLFWD, for which the amyloid nucleation score result is “inactive”.
As for LCEEYYSINTWFRYVNVDIL, the entry is “inactive”.
Under LCFNR stands “inactive”; under LCISVPNFSLAFLSLGWLCK, “inactive”.
On to LCITIVSRWVVGVFHQMFYT, for which the amyloid nucleation score was -0.219 ± 0.68.
Under LCIWNWFLSSNRMLRKLAD stands “inactive”; under LCKCLLIEFCYVVK, 0.772 ± 0.12; under LCLGFVHPVIPFWIAML, “inactive”.
LCLLYIGTSTIYGHECPDKT: the amyloid nucleation score entry is “inactive”.
Under LCNSVAYPDSGTVRLLKREL stands 0.005 ± 0.6; under LCNSVRNGNYYTGYGVTLYV, “inactive”.
Under LCSYGVGWD stands “inactive”; under LCTSADYWSHKNRGRAYSRR, “inactive”; under LCVIVTAVKGFTVPWHNFFL, “inactive”.
As for LDAYLWNNCMYVYHLEPYSW, the entry is “inactive”; as for LDGTGCDGPLARKNCGRNAV, “inactive”; as for LDLIRY, “inactive”.
On to LDLLMGV, for which the amyloid nucleation score result is “inactive”.
As for LDLSLMHGMFTYFGVHMMMP, the amyloid nucleation score entry is “inactive”.
As for LDMPCILLYLRSNWGRFG, the entry is “inactive”; as for LDMSFSGYTRVLARSISTDA, 0.474 ± 0.65.
